This data set deals with the molecule itself. Put plainly: SEC; Superdex 200 10/300 GL, 30 mM Tris pH 7.0, 50 mM sodium chloride; oligomeric state judged from the elution profile. (In general: SEC sorts molecules by how far they enter the pores of the column.)

B1: E. coli agmatine ureohydrolase (agmatinase, SPEB) (enzyme, UniProt P60651 1-306, looked up)
chain: MSTLGHQYDNSLVSNAFGFLRLPMNFQPYDSDADWVITGVPFDMATSGRAGGRHGPAAIRQVSTNLAWEHNRFPWNFDMRERLNVVDCGDLVYAFGDAREMSEKLQAHAEKLLAAGKRMLSFGGDHFVTLPLLRAHAKHFGKMALVHFDAHTDTYANGCEFDHGTMFYTAPKEGLIDPNHSVQIGIRTEFDKDNGFTVLDACQVNDRSVDDVIAQVKQIVGDMPVYLTFDIDCLDPAFAPGTGTPVIGGLTSDRAIKLVRGLKDLNIVGMDVVEVAPAYDQSEITALAAATLALEMLYIQAAKKGE
notes: E. coli agmatinase SPEB, UniProt P60651, a 306 residue protein; cloned in pTHT (a pET-28 variant with a TEV protease site in place of the thrombin site); Two Mn2+ ions were modelled in each active site; also called agmatine amidinohydrolase; SPEB-THT (plasmid); source: E. coli BL21(DE3), purified (Ni-NTA, size exclusion chromatography)
In the case of B1, the stoichiometry N (as a rule, the number of molecules, sites or subunits per partner or assembly) was 6.

Source of the values: PMC8049259, “Structure of the E. coli agmatinase, SPEB” (PLoS ONE, 2021).
